Test results taken from PMC11828871, “Structural basis of anticancer drug recognition and amino acid transport by LAT1” (Nature Communications, 2025).

How the values were obtained:
CD98hc (4F2hc; SLC3A2) = target: T1, CD98hc (4F2hc; SLC3A2) (human, UniProt P08195); experiment: cryo-EM structure; LAT1–CD98hc in lipid nanodiscs (POPC:POPG:cholesterol 2:2:1, MSP2N2) complexed with Fab170, gel filtration; SEC buffer 20 mM Tris-HCl pH 9.0, 150 mM NaCl; with JPH203, L-Phe, melphalan, BCH, T3 or no ligand; conditions: both partners purified
T1 construct: CD98hc (4F2hc; SLC3A2), human, single membrane-spanning protein; The complex was purified by GFP-nanotrap and a FLAG-tag purification step was skipped; The TMD-only models hold only TM1' of CD98hc

[1] = target: T2, LAT1–CD98hc heterodimeric complex (human, UniProt Q01650;P08195); experiment: as above; conditions: both partners purified
T2 construct: LAT1 (SLC7A5), human; as the chain of m1; CD98hc (4F2hc; SLC3A2), human; as the chain of m2
T2 sequence (Q01650 whole entry, chain 1 of 2): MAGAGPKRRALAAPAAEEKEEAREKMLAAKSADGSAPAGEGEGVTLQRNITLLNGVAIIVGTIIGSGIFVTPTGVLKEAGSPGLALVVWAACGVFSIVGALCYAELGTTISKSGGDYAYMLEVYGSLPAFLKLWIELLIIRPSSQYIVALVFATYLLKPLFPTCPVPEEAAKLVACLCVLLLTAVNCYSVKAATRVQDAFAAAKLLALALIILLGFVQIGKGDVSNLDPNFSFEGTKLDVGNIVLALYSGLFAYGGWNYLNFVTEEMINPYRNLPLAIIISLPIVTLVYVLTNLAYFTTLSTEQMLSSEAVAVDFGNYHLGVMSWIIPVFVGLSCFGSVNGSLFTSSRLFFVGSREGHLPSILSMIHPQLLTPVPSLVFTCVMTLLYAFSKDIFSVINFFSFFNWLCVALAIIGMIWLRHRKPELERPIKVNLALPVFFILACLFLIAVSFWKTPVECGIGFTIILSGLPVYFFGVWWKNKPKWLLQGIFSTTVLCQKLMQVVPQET
T2 sequence (P08195 102-630, chain 2 of 2): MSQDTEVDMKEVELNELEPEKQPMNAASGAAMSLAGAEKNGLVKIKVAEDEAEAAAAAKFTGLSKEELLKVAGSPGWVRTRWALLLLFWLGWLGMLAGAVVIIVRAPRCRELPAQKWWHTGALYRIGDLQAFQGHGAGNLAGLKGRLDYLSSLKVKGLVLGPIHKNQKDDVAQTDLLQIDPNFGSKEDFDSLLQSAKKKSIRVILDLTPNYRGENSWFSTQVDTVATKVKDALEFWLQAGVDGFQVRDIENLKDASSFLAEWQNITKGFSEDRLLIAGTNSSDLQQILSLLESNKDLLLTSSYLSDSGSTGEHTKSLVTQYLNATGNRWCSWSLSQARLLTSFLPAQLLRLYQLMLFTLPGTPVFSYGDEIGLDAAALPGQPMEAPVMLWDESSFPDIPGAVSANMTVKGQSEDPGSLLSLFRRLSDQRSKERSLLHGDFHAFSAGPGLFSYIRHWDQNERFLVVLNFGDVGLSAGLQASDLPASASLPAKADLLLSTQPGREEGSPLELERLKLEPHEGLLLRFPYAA

T1 sequence (P08195 102-630): as the sequence (P08195 102-630, chain 2 of 2) above

binding result (CD98hc (4F2hc; SLC3A2)): binds | binding result [1]: binds
B1: Fab fragment from clone 170 (Fab170) (Fab, V domains shown)
VH: EVQLQQSGAELVKPGASVNLSCKASGYTFTNYWMHWVRLRPGQGLEWIGEIDPSDSYSYYSQNFKGKATLTVDQSSNTAYLQLTSLTSEDSAVYYCARGRQTYYPWFPYWGQGTLVTVSA
VL: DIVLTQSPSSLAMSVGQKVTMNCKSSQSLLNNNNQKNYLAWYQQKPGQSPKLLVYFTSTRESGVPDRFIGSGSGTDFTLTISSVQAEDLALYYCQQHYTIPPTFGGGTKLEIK
notes: Mouse monoclonal antibody raised against liposomes with purified LAT1–CD98hc; source: mouse hybridoma culture supernatant; IgG purified by Protein G column, digested by papain, Fab further purified on Protein A column
